Data: paper PMC2188490
Read-outs that look alike come from different tables or passages of the source.

Key:
Assay in all cases: kinetic titration of prothrombinase activity
[1] = biological target: factor V/Va (mixture of nonactivated and activated factor V) purified from rabbit plasma (rabbit)
[2] = biological target: high-affinity factor Xa receptor on cultured rabbit alveolar macrophages (rabbit (endogenous in alveolar macrophages))
[3] = biological target: factor V/Va (mixture of nonactivated and activated factor V) purified from rabbit plasma (rabbit); remark: listed apart in the source

Substance: factor Xa (enzyme)
- Kd [1]: 0.603 nM
- Kd [2]: 0.211 nM
- Kd [3]: 0.821 nM
